From article PMC7387800 come the findings set out here.

Data set [1] deals with VqmA-FLAG (Vibrio cholerae). The experiment in a line: non-reducing SDS-PAGE with anti-FLAG immunoblot (disulfide-linked dimer); cells treated 1 h with 25 μM DPO, in the presence or absence of O2; lysate boiled in SDS-PAGE buffer without BME.
Data set [2] deals with VqmA-FLAG (Vibrio cholerae).
In data set [3] the test system is 6xHis-VqmA WT (Vibrio cholerae C6706?). The experiment in a line: EMSA.
For data set [4], the system named is 6xHis-VqmA C134A (Vibrio cholerae C6706?). Nature of the data set: EMSA. (In general: Mobility shift assays separate free from complexed probe on a gel.)

In the case of VqmA-FLAG (natural protein), in data set [1], the percent of Holo-VqmA with the intermolecular C134-C134 disulfide bond lay within 40 to 50% and the stoichiometry N (commonly the number of molecules, sites or subunits per partner or assembly) was 2. This substance also gave a vqmR-lacZ reporter activity in ΔvqmA Δtdh V. cholerae carrying pvqmA-FLAG, with 25 μM DPO, with against without DTT in data set [2] of 6 fold.

In turn, vqmR promoter DNA (PvqmR) registered a binding signal (fold more potent than diamide-treated P2) in data set [3] of 2. Moreover, in data set [4], the binding signal (fold reduction vs DTT-treated P2) was 4.
